Results published in paper PMC4259466.
Blank lines part the entries; values can stand above or below the substance they belong to.

Assays:
ROCK2 = ROCK2 (UniProt O75116); experiment: GST-MLC2 pull-down from HeLa lysate; details: sites Y118
MLC2 = MLC2 (UniProt P10916); experiment: His-PKM2 bead pull-down of GST-MLC2; details: reference: WT His-PKM2 without Aurora B; sites T45

binding against the reference (ROCK2; reference: GST-MLC2 wild type): lost
Substance: MLC2 (from UniProt P10916) GST-MLC2 Y118F

binding against the reference (MLC2): stronger
Substance: PKM2 (from UniProt P14618) WT His-PKM2 treated with Aurora B

binding against the reference (ROCK2; reference: GST-MLC2 with PKM2, no PEP): stronger
Substance: MLC2 (from UniProt P10916) GST-MLC2 with PKM2 and PEP
